Consider 11 molecules from patent US20240092899A1 (CHIA TAI TIANQING PHARMACEUTICAL GROUP, published 2024).

The target in experiment [1] is heavy chain HZ14A9VH-CH1-IgG1. Briefly: co-expression in ExpiCHO-S, protein A purification, non-reducing SDS-PAGE. As for the experimental part:
(§1) After transfection, the cells were placed in ExpiCHO™ medium (manufacturer: Thermo, Cat No. A2910001), and expressed and cultured at 32° C. with 5% CO₂ at 130 rpm. On day 10, the cell supernatant was collected, and the target protein was purified by protein A affinity chromatography using AKTA Pure 25 L system from GE and MabSelect SuRe LX packing. After elution, the concentration of the eluted protein was measured using NanoDrop Lite (Thermo Fisher Scientific). The purity of the eluted protein was measured by SEC-HPLC, and the protein purity of the sample used for the test was not lower than 80%. A total amount of […] of protein was taken from each sample and subjected to non-reducing SDS-PAGE electrophoresis. The protein was stained with Coomassie brilliant blue, and the electrophoresis results were observed.
(§2) After the co-expression and purification of HZ5G11VH-Cα-IgG1 and HZ14A9VL-IgK as well as HZ14A9VH-Cα-IgG1 and HZ5G11VL-IgK, various products were generated. […] The results above indicate that there is some interaction between the CL domain and MHCICα, thereby promoting the production of light and heavy-mispaired products.

The next experiment has as its target T1, human CD47 (human, UniProt Q08722 19-139).
T1 construct: Bought antigen; also called ACROBiosystems Cat. No. CD7-H5227
Briefly: SPR (Biacore 8K), antibody captured on chip, antigen injected. From the text:
(§3) The affinity properties of the HZ5G11 monoclonal antibody, the HZ14A9 monoclonal antibody, MHL147-3322-IgG1-wt and MHL147-3322-IgG1-F118A bispecific antibodies were characterized by Biacore. The HZ5G11 monoclonal antibody, the HZ14A9 monoclonal antibody, MHL147-3322-IgG1-wt and MHL147-3322-IgG1-F118A bispecific antibodies were respectively immobilized onto a sensing chip by a capture method, and a human PDL1 (manufacturer: ACROBiosystems, Cat. No. PD1-H52H3) or human CD47 (manufacturer: ACROBiosystems, Cat. No. CD7-H5227) protein antigen solution with a certain concentration gradient was injected into the sample. Association/dissociation curves were acquired in real time by Biacore 8K Control Software 3.0, and data analysis was performed by Biacore Insight Evaluation Software 3.0. An association rate constant Ka, a dissociation rate constant Kd, and an equilibrium constant KD were obtained.
Background: Surface plasmon resonance follows binding to a sensor surface in real time, without labels.

In another experiment the target is T2, human PDL1 (human, UniProt Q9NZQ7 19-238).
T2 construct: Bought antigen; also called ACROBiosystems Cat. No. PD1-H52H3
T2 sequence (Q9NZQ7 19-238 limits assumed): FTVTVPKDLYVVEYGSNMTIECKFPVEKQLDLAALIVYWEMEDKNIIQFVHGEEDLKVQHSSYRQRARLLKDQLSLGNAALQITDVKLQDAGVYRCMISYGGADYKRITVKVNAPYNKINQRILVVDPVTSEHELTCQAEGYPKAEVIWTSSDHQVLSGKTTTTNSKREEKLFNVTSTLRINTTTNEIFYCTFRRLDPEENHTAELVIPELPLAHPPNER
The experiment is described as above.
From the text: as §3

In experiment [2] the target is heavy chain HZ14A9VH-Cα-IgG1. Briefly: co-expression in ExpiCHO-S, protein A purification, non-reducing SDS-PAGE. How it is done:
as §1, §2

The target of experiment [3] is heavy chain HZ5G11VH-CH1-IgG1. In words: co-expression in ExpiCHO-S, protein A purification, non-reducing SDS-PAGE, Coomassie stain. As for the experimental part: as §1, §2
Experiment [4] concerns the target heavy chain HZ14A9VH-Cα-IgG1. The experiment is described as above.
Experiment [5] has as its target heavy chain HZ5G11VH-CH1-IgG1. In words: co-expression in ExpiCHO-S, protein A purification, non-reducing SDS-PAGE. As for the experimental part: as §1, §2
The target of experiment [6] is T3, heavy chain HZ5G11VH-Cα-IgG1.
T3 construct: HZ5G11 heavy chain whose CH1 is replaced by MHCICα
The description is as above. As for the experimental part:
as §1, §2

In experiment [7] the target is heavy chain HZ14A9VH-CH1-IgG1. Briefly: co-expression in ExpiCHO-S, protein A purification, non-reducing SDS-PAGE, Coomassie stain. How it is done:
as §1, §2

T1 sequence (Q08722 19-139 limits assumed): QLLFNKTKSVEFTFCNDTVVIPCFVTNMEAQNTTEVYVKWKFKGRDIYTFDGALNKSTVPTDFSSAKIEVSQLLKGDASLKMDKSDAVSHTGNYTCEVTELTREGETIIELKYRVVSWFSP

B1: light chain HZ5G11VL-Cβ (other)
light: DIQMTQSPSSLSASVGDRVTITCKASQSVSNDVAWYQQKPGKAPKLLIYYAANRYTGVPDRFSGSGYGTDFTFTISSLQPEDIATYFCQQDYTSPYTFGQGTKLEIKIQRTPKIQVYSCHPAENGKSNFLNCYVSGFHPSDIEVDLLKNGERIEKVEHSDLSFSKDWSFYLLYYTRFTPTEKDEYACRVNHVTLSQPKIVKWDRGP
notes: HZ5G11 light chain whose CL is replaced by MHCICβ
As for B1, the binding result in [1] is on record as “no binding”.

B2: HZ14A9 monoclonal antibody (antibody, V domains shown)
VH: QVQLVQSGAEVKKPGASVKVSCKVSGFNIEDDYIEWVRQAPGQGLEWMGRIDPANDKTKYAQKFQGRVTMTGDTSTNTVYMELSSLRSEDTAVYYCARPGLRRYYSMDYWGQGTLVTVSS
VL: DIQMTQSPSSLSASVGDRVTITCKASENVVSYVSWYQQKPGKAPKLLIYGASNRYTGVPSRFIGSGSSTDFTLTISSLQPEDFATYYCGQSYSYPLTFGQGTKLEIKR
notes: Humanized IgG1 kappa antibody from a mouse hybridoma; also called monoclonal IgG1K antibody HZ14A9 targeting human CD47
Turning to B2, in the experiment with human CD47, binding was characterised by a dissociation constant (Kd) of 5.85 nM; the off-rate (koff) (in general, a measure of how fast the partners let go of each other) amounted to 0.0143 s⁻¹; the kon (usually a measure of how fast the partners come together) came out at 2.45e+06 M⁻¹ s⁻¹.

B3: HZ5G11 monoclonal antibody (antibody, V domains shown)
VH: QITLKESGPTLVKPTQTLTLTCTVSGFSLSTYGVHWIRQPPGKALEWLGVIWRGVTTDYNAAFMSRLTITKDNSKNQVVLTMNNMDPVDTATYYCARLGFYAMDYWGQGTLVTVSS
VL: DIQMTQSPSSLSASVGDRVTITCKASQSVSNDVAWYQQKPGKAPKLLIYYAANRYTGVPDRFSGSGYGTDFTFTISSLQPEDIATYFCQQDYTSPYTFGQGTKLEIKR
notes: Humanized IgG1 kappa antibody from a mouse hybridoma; also called monoclonal IgG1K antibody HZ5G11 targeting human PD-L1
Consider B3, for which, in the experiment with human PDL1, the Kd (usually a measure of binding affinity in units of concentration) came out at 0.282 nM, the off-rate constant (koff) worked out at 0.000427 s⁻¹ and the on-rate constant (kon) stood at 1.51e+06 M⁻¹ s⁻¹.

B4: light chain HZ5G11VL-IgK (other)
light: DIQMTQSPSSLSASVGDRVTITCKASQSVSNDVAWYQQKPGKAPKLLIYYAANRYTGVPDRFSGSGYGTDFTFTISSLQPEDIATYFCQQDYTSPYTFGQGTKLEIKRTVAAPSVFIFPPSDEQLKSGTASVVCLLNNFYPREAKVQWKVDNALQSGNSQESVTEQDSKDSTYSLSSTLTLSKADYEKHKVYACEVTHQGLSSPVTKSFNRGEC
Turning to B4, the binding result in [2], in experiment [1] and in experiment [3] was “binds” each time.

B5: HZ5G11VL-IgK-S114A (other)
light chain: DIQMTQSPSSLSASVGDRVTITCKASQSVSNDVAWYQQKPGKAPKLLIYYAANRYTGVPDRFSGSGYGTDFTFTISSLQPEDIATYFCQQDYTSPYTFGQGTKLEIKRTVAAPAVFIFPPSDEQLKSGTASVVCLLNNFYPREAKVQWKVDNALQSGNSQESVTEQDSKDSTYSLSSTLTLSKADYEKHKVYACEVTHQGLSSPVTKSFNRGEC
notes: Variant of m12; also called light chain HZ5G11VL-IgK with S114A (EU numbering) in the CL domain
For the molecule B5, the binding result in experiment [4] was “binds”.

B6: HZ5G11VL-IgK-F118I (other)
light chain: DIQMTQSPSSLSASVGDRVTITCKASQSVSNDVAWYQQKPGKAPKLLIYYAANRYTGVPDRFSGSGYGTDFTFTISSLQPEDIATYFCQQDYTSPYTFGQGTKLEIKRTVAAPSVFIIPPSDEQLKSGTASVVCLLNNFYPREAKVQWKVDNALQSGNSQESVTEQDSKDSTYSLSSTLTLSKADYEKHKVYACEVTHQGLSSPVTKSFNRGEC
notes: Variant of m12; also called light chain HZ5G11VL-IgK with F118I (EU numbering) in the CL domain
Regarding B6, the binding result in experiment [4] is given as “binds”.

B7: HZ5G11VL-IgK-F116A (other)
light chain: DIQMTQSPSSLSASVGDRVTITCKASQSVSNDVAWYQQKPGKAPKLLIYYAANRYTGVPDRFSGSGYGTDFTFTISSLQPEDIATYFCQQDYTSPYTFGQGTKLEIKRTVAAPSVAIFPPSDEQLKSGTASVVCLLNNFYPREAKVQWKVDNALQSGNSQESVTEQDSKDSTYSLSSTLTLSKADYEKHKVYACEVTHQGLSSPVTKSFNRGEC
notes: Variant of m12; also called light chain HZ5G11VL-IgK with F116A (EU numbering) in the CL domain
For B7, the binding result in experiment [4] was “binds”.

B8: light chain HZ14A9VL-Cβ (other)
light: DIQMTQSPSSLSASVGDRVTITCKASENVVSYVSWYQQKPGKAPKLLIYGASNRYTGVPSRFIGSGSSTDFTLTISSLQPEDFATYYCGQSYSYPLTFGQGTKLEIKIQRTPKIQVYSCHPAENGKSNFLNCYVSGFHPSDIEVDLLKNGERIEKVEHSDLSFSKDWSFYLLYYTRFTPTEKDEYACRVNHVTLSQPKIVKWDRGP
Consider B8, for which the binding result in experiment [5] is “no binding”.

B9: light chain HZ14A9VL-IgK (other)
light: DIQMTQSPSSLSASVGDRVTITCKASENVVSYVSWYQQKPGKAPKLLIYGASNRYTGVPSRFIGSGSSTDFTLTISSLQPEDFATYYCGQSYSYPLTFGQGTKLEIKRTVAAPSVFIFPPSDEQLKSGTASVVCLLNNFYPREAKVQWKVDNALQSGNSQESVTEQDSKDSTYSLSSTLTLSKADYEKHKVYACEVTHQGLSSPVTKSFNRGEC
B9: the binding result in experiment [5], in experiment [6] and in experiment [7] was “binds” each time.

B10: MHL147-3322-IgG1-wt (bispecific antibody)
heavy 1: not shown
light 1: DIQMTQSPSSLSASVGDRVTITCKASQSVSNDVAWYQQKPGKAPKLLIYYAANRYTGVPDRFSGSGYGTDFTFTISSLQPEDIATYFCQQDYTSPYTFGQGTKLEIKIQRTPKIQVYSCHPAENGKSNFLNCYVSGFHPSDIEVDLLKNGERIEKVEHSDLSFSKDWSFYLLYYTRFTPTEKDEYACRVNHVTLSQPKIVKWDRGP
heavy 2: not shown
light 2: DIQMTQSPSSLSASVGDRVTITCKASENVVSYVSWYQQKPGKAPKLLIYGASNRYTGVPSRFIGSGSSTDFTLTISSLQPEDFATYYCGQSYSYPLTFGQGTKLEIKRTVAAPSVFIFPPSDEQLKSGTASVVCLLNNFYPREAKVQWKVDNALQSGNSQESVTEQDSKDSTYSLSSTLTLSKADYEKHKVYACEVTHQGLSSPVTKSFNRGEC
notes: IgG1 bispecific with LALA (L234A+L235A) and KIH mutations; The PD-L1 arm is modified with MHC-I elements; the CD47 arm is a Fab with wild-type kappa CL; also called anti-PDL1*CD47 bispecific antibody
In the experiment with human CD47, B10 displayed a Kd of 3.31 nM, a koff of 0.0124 s⁻¹ and an on-rate (kon) of 3.75e+06 M⁻¹ s⁻¹. In the experiment with human PDL1, this molecule yielded a Kd of 0.304 nM, a koff of 0.000562 s⁻¹ and an association rate constant (kon) of 1.85e+06 M⁻¹ s⁻¹.

B11: MHL147-3322-IgG1-F118A (bispecific antibody)
heavy 1: not shown
light 1: DIQMTQSPSSLSASVGDRVTITCKASQSVSNDVAWYQQKPGKAPKLLIYYAANRYTGVPDRFSGSGYGTDFTFTISSLQPEDIATYFCQQDYTSPYTFGQGTKLEIKIQRTPKIQVYSCHPAENGKSNFLNCYVSGFHPSDIEVDLLKNGERIEKVEHSDLSFSKDWSFYLLYYTRFTPTEKDEYACRVNHVTLSQPKIVKWDRGP
heavy 2: not shown
light 2: DIQMTQSPSSLSASVGDRVTITCKASENVVSYVSWYQQKPGKAPKLLIYGASNRYTGVPSRFIGSGSSTDFTLTISSLQPEDFATYYCGQSYSYPLTFGQGTKLEIKRTVAAPSVFIAPPSDEQLKSGTASVVCLLNNFYPREAKVQWKVDNALQSGNSQESVTEQDSKDSTYSLSSTLTLSKADYEKHKVYACEVTHQGLSSPVTKSFNRGEC
notes: IgG1 bispecific with LALA (L234A+L235A) and KIH mutations; The PD-L1 arm is modified with MHC-I elements; the CD47 arm is a Fab whose kappa CL carries F118A (EU numbering); also called MHL147-3322-F118A; anti-PDL1*CD47 bispecific antibody
Take B11: in the experiment with human CD47, the equilibrium dissociation constant (Kd) was determined as 5.26 nM, the koff amounted to 0.0249 s⁻¹ and the on-rate (kon) is 4.74e+06 M⁻¹ s⁻¹. In the experiment with human PDL1, this molecule yielded a Kd of 0.384 nM, a koff of 0.000606 s⁻¹ and a kon of 1.58e+06 M⁻¹ s⁻¹.
